Results as given in doi:10.1101/2020.02.21.959445.
Where a chain is given by its changes, count along the chain named.

Experiments:
Test in all cases: EMSA
[1] = target: T1, ME47/AA (designed (human Max/human E47), R12A;C29A)
T1 chain: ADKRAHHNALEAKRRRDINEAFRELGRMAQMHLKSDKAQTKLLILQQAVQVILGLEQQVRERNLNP

[2] = target: T2, MEF (designed (human Max/human E47/FosW))
T2 chain: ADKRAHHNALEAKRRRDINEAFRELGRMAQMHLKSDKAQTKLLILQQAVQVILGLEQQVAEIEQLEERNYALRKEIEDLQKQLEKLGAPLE

[3] = target: T3, MEF-1 (designed (human Max/human E47/FosW))
T3 chain: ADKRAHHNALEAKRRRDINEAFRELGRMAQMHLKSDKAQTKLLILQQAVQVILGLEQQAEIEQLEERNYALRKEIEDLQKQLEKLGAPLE

[4] = target: T4, MEF+1 (designed (human Max/human E47/FosW))
T4 chain: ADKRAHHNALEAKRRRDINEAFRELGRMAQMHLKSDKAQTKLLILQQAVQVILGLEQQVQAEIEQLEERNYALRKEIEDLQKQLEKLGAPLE

[5] = target: T5, MEF/LA (designed (human Max/human E47/FosW), four FosW heptad Leu to Ala (see sequence))
T5 chain: T2 chain with L65A, L72A, L79A, L86A

B1: NS DNA (nonspecific; TCCAAG in place of CACGTG) (dsDNA)
DNA 1: TGCAGGAGTTCCAAGGCGAAGGTT
DNA 2: AACCTTCGCCTTGGAACTCCTGCA
For B1, the Kd [1] was 87.5 ± 5.1 nM, the Kd [2] was 96 ± 22 nM and the Kd [3] was 111 ± 18 nM. The Kd [4] was 65 ± 7 nM and the Kd [5] was 44.5 ± 6 nM.

B2: AT E-box (-7 AT E-box) (dsDNA)
DNA 1: GCGGCCGCTGCAGGAACCACGTGGTGGAATTCTTTACA
DNA 2: TGTAAAGAATTCCACCACGTGGTTCCTGCAGCGGCCGC
In the case of B2, the Kd [1] is reported as 28.5 ± 2.3 nM.

B3: E-box (-7 GC E-box) (dsDNA)
DNA 1: B2 DNA 1 with A16G, G24C, T25G
DNA 2: B2 DNA 2 with A14C, C15G, T23C
In the case of B3, the Kd [1] is reported as 27.7 ± 1.7 nM, the Kd [2] is reported as 7.8 ± 0.6 nM and the Kd [3] is reported as 59 ± 5 nM. For the same binder, the Kd [4] was 30 ± 4 nM and the Kd [5] was 10.7 ± 1.5 nM.
